Test [1] concerns the target T1, full-length CD9 expressed on cells (human, UniProt P21926 2-228).
T1 construct: also called human CD9
T1 sequence: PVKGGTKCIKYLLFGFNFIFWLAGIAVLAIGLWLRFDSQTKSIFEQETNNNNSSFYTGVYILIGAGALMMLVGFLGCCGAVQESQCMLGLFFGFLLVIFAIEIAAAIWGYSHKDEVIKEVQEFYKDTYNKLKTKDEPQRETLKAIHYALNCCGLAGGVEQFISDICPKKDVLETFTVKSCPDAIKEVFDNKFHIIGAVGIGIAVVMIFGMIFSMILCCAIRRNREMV
Description: selection by binding to cells expressing full-length CD9; method not described.

Test [2] deals with T2, recombinant human CD9 long extracellular loop 2-human Fc fusion protein (10015-CD, R&D Systems) (human, UniProt P21926 112-195).
T2 construct: Bought protein; The parts are ordered as in the printed name; also called CD9-loop2; long extracellular loop 2 peptide; not shown: human Fc of the bought fusion protein
T2 sequence: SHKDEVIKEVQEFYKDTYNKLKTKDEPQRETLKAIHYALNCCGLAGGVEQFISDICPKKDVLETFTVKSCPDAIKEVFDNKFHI
Description: biolayer interferometry (Octet RED384), CD9 loop 2-Fc on AHC biosensors, Fab-Y 10 ug/mL. How it is done: Seven different CD9 antibodies each providing unique functional activity with CD137, CD7 and HVEM antibodies in a bispecific combination were analysed for their ability to bind the long extracellular loop 2 of CD9. CD9 contains two extracellular loops: a short extracellular loop (loop 1: 34-55 in SEQ ID NO:1) and a long extracellular loop (loop 2: 112-195 in SEQ ID NO:1). We used biolayer interferometry to assess binding of our panel of CD9 Fab-Y antibodies (selected for ability to bind full-length CD9 expressed on cells) to the long extracellular loop 2 peptide, using the Octet® RED384 System (FortéBio) with anti-hIgG Fc Capture (AHC) Biosensors (FortéBio) at room temperature. Firstly, an array of 8 sensors was dipped in kinetics buffer (PBS 0.1%, BSA 0.02%, Tween 20) for 120 seconds to provide a baseline signal. Sensors were then moved to wells containing 200 μl of recombinant human CD9 long extracellular loop 2-human Fc fusion protein (10015-CD, R&D Systems®) at 2 μg/mL in kinetics buffer to immobilize the protein to the biosensor (100 seconds), followed by a second baseline step (180 seconds) in kinetics buffer to equilibrate the biosensors now coated with the CD9 long extracellular loop 2-human Fc fusion protein. No detachment of the peptide was observed during this step. […]
On the technique in general: BLI is a label-free optical method that tracks binding on a fibre tip over time.

The text below walks through data of patent US20230151109A1 (UCB, published 2023).

B1: anti-CD9 Fab-Y antibody 7272 (Fab, V domains shown)
VH: QSLEESGGRLVTPGTPLTLTCTVSGFSLSSYAMGWVRQAPGKGLEWIGAIGSITATGYARWAKGRFSISKTSTTVDLKMTSPTTEDTATYFCAREIYVGSAYAFDIWGPGTLVTVSS
VL: AYDMTQTPASVEVAVGDTVTIKCQASQSISNYLAWYQQKPGQPPKLLIYLASTLASGVPSRFKGSGSGTEFTLTISDLECADAATYYCQQGYIDNVNKGFGGGTEVVVK
notes: Tested as Fab-Y: Fab fragment joined through a peptide linker at CH1 to the GCN4 peptide (clone 7P14P); also called VR7272
For the molecule B1, the binding result in test [1] and in test [2] was “binds” throughout.
